Assays:
[1] = target: Chorionic Gonadotropin (CG) (UniProt P01215); assay: FRET quenching titration, BHQ-10 antibody and Alexa Fluor 488 antigen
[2] = target: Follicle Stimulating Hormone (FSH) (UniProt P01215); assay: as above
Luteinizing Hormone (LH) [3] = target: Luteinizing Hormone (LH) (UniProt P01215); assay: as above
[4] = target: Thyroid Stimulating Hormone (TSH) (UniProt P01215); assay: as above
[5] = target: Thyroid Stimulating Hormone (TSH) (UniProt P01215); assay: FRET competition on Alexa488-labelled antigen; competitor BHQ-labelled M4
[6] = target: Thyroid Stimulating Hormone (TSH) (UniProt P01215); assay: FRET competition on Alexa488-labelled antigen; competitor BHQ-labelled 414B
[7] = target: Thyroid Stimulating Hormone (TSH) (UniProt P01215); assay: FRET competition on Alexa488-labelled antigen; competitor BHQ-labelled 5409
[8] = target: Thyroid Stimulating Hormone (TSH) (UniProt P01215); assay: FRET competition on Alexa488-labelled antigen; competitor BHQ-labelled T25C
[9] = target: Thyroid Stimulating Hormone (TSH) (UniProt P01215); assay: FRET competition on Alexa488-labelled antigen; competitor BHQ-labelled ME130
[10] = target: Thyroid Stimulating Hormone (TSH) (UniProt P01215); assay: FRET competition on Alexa488-labelled antigen; competitor BHQ-labelled TSH Ab 544
[11] = target: Thyroid Stimulating Hormone (TSH) (UniProt P01215); assay: i-STAT sandwich cartridge with TSH; capture beads TSH Ab 544, detection conjugate M4; note: test concentration or dose not given here
[12] = target: Thyroid Stimulating Hormone (TSH) (UniProt P01215); assay: i-STAT sandwich cartridge with TSH; capture beads TSH Ab 544, detection conjugate 414B; note: test concentration or dose not given here
[13] = target: Thyroid Stimulating Hormone (TSH) (UniProt P01215); assay: i-STAT sandwich cartridge with TSH; capture beads TSH Ab 544, detection conjugate 5409; note: test concentration or dose not given here
[14] = target: Thyroid Stimulating Hormone (TSH) (UniProt P01215); assay: i-STAT sandwich cartridge with TSH; capture beads TSH Ab 544, detection conjugate T25C
[15] = target: Thyroid Stimulating Hormone (TSH) (UniProt P01215); assay: i-STAT sandwich cartridge with TSH; capture beads TSH Ab 544, detection conjugate ME130; note: test concentration or dose not given here
[16] = target: Chorionic Gonadotropin (CG) (UniProt P01215); assay: i-STAT sandwich cartridge, 0.4 mIU/L TSH plus CG, signal gain over TSH alone; capture 94544, detection 414B
Luteinizing Hormone (LH) [17] = target: Luteinizing Hormone (LH) (UniProt P01215); assay: i-STAT sandwich cartridge, 0.4 mIU/L TSH plus LH, signal gain over TSH alone; capture 94544, detection 414B
[18] = target: Follicle Stimulating Hormone (FSH) (UniProt P01215); assay: i-STAT sandwich cartridge, 0.4 mIU/L TSH plus FSH, signal gain over TSH alone; capture 94544, detection 414B

Substance: TSH Ab 544 (Abbott Diagnostics Division) (antibody)
- Kd [1]: 210 nM
- Kd [2]: 1000 nM
- Kd (Luteinizing Hormone (LH) [3]): 1000 nM
- Kd [4]: 1.31 nM
- relative fluorescence [5]: 0.92 normalized
- relative fluorescence [6]: 0.89 normalized
- relative fluorescence [7]: 0.96 normalized
- relative fluorescence [8]: 0.71 normalized
- relative fluorescence [9]: 0.72 normalized
- relative fluorescence [10]: 1 normalized
- electrochemical current [11]: 0.11 nA
- electrochemical current [12]: 25 nA
- electrochemical current [13]: 7.98 nA
- electrochemical current [14]: 22.4 nA
- electrochemical current [15]: 34.9 nA
- CG CR (%) [16]: 117%
- LH CR (%) (Luteinizing Hormone (LH) [17]): 11.8%
- FSH CR (%) [18]: 7.15%

Source: US9575076
